Data: US20260015399A1 (Boehringer Ingelheim, published 2026)
*1 amine or outer side, *2 acyl side, *3 side chain or, on linkers, in order; H or OH if unused. Side-chain parts run from the residue outwards. The star is where a group is joined. C18 diacid = O=C(O)CCCCCCCCCCCCCCCCC(=O)*; γGlu = O=C(O)[C@H](CCC(=O)[*:2])N[*:1]; Isovaleryl = CC(C)CC(=O)*; Ahx = NCCCCCC(=O)O

T1: human NPY2 receptor (human, UniProt P49146 1-381)
T1 construct: whole, on cells; also called hNPY2-R; hNPY2R
T1 sequence (looked up): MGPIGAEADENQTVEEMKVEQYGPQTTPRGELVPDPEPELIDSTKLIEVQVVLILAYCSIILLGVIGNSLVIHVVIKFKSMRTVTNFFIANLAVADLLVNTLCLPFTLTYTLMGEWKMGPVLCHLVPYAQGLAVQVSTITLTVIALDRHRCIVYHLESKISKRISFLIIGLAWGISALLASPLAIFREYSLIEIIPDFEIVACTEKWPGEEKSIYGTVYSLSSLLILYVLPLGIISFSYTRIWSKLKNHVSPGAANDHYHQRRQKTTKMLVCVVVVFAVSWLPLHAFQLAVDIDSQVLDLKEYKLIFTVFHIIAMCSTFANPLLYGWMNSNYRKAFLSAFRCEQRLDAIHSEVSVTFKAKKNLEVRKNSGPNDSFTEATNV

B1: Compound 185 (peptide)
peptide: Isovaleryl-APAK([Ahx-γGlu-C18 diacid])PEEDASEEELQRYYVSLRHYYNWLTRQRY-NH2
SMILES: CC(C)CC(=O)N[C@@H](C)C(=O)N1CCC[C@H]1C(=O)N[C@@H](C)C(=O)N[C@@H](CCCCNC(=O)CCCCCNC(=O)CC[C@H](NC(=O)CCCCCCCCCCCCCCCCC(=O)O)C(=O)O)C(=O)N1CCC[C@H]1C(=O)N[C@@H](CCC(=O)O)C(=O)N[C@@H](CCC(=O)O)C(=O)N[C@@H](CC(=O)O)C(=O)N[C@@H](C)C(=O)N[C@@H](CO)C(=O)N[C@@H](CCC(=O)O)C(=O)N[C@@H](CCC(=O)O)C(=O)N[C@@H](CCC(=O)O)C(=O)N[C@@H](CC(C)C)C(=O)N[C@@H](CCC(N)=O)C(=O)N[C@@H](CCCNC(=N)N)C(=O)N[C@@H](Cc1ccc(O)cc1)C(=O)N[C@@H](Cc1ccc(O)cc1)C(=O)N[C@H](C(=O)N[C@@H](CO)C(=O)N[C@@H](CC(C)C)C(=O)N[C@@H](CCCNC(=N)N)C(=O)N[C@@H](Cc1c[nH]cn1)C(=O)N[C@@H](Cc1ccc(O)cc1)C(=O)N[C@@H](Cc1ccc(O)cc1)C(=O)N[C@@H](CC(N)=O)C(=O)N[C@@H](Cc1c[nH]c2ccccc12)C(=O)N[C@@H](CC(C)C)C(=O)N[C@H](C(=O)N[C@@H](CCCNC(=N)N)C(=O)N[C@@H](CCC(N)=O)C(=O)N[C@@H](CCCNC(=N)N)C(=O)N[C@@H](Cc1ccc(O)cc1)C(N)=O)[C@@H](C)O)C(C)C
B2: Compound 192 (peptide)
peptide: Isovaleryl-APEK([Ahx-γGlu-C18 diacid])PEAPASPEELQRYYVSLRHYYNWLTRQRY-NH2
SMILES: CC(C)CC(=O)N[C@@H](C)C(=O)N1CCC[C@H]1C(=O)N[C@@H](CCC(=O)O)C(=O)N[C@@H](CCCCNC(=O)CCCCCNC(=O)CC[C@H](NC(=O)CCCCCCCCCCCCCCCCC(=O)O)C(=O)O)C(=O)N1CCC[C@H]1C(=O)N[C@@H](CCC(=O)O)C(=O)N[C@@H](C)C(=O)N1CCC[C@H]1C(=O)N[C@@H](C)C(=O)N[C@@H](CO)C(=O)N1CCC[C@H]1C(=O)N[C@@H](CCC(=O)O)C(=O)N[C@@H](CCC(=O)O)C(=O)N[C@@H](CC(C)C)C(=O)N[C@@H](CCC(N)=O)C(=O)N[C@@H](CCCNC(=N)N)C(=O)N[C@@H](Cc1ccc(O)cc1)C(=O)N[C@@H](Cc1ccc(O)cc1)C(=O)N[C@H](C(=O)N[C@@H](CO)C(=O)N[C@@H](CC(C)C)C(=O)N[C@@H](CCCNC(=N)N)C(=O)N[C@@H](Cc1c[nH]cn1)C(=O)N[C@@H](Cc1ccc(O)cc1)C(=O)N[C@@H](Cc1ccc(O)cc1)C(=O)N[C@@H](CC(N)=O)C(=O)N[C@@H](Cc1c[nH]c2ccccc12)C(=O)N[C@@H](CC(C)C)C(=O)N[C@H](C(=O)N[C@@H](CCCNC(=N)N)C(=O)N[C@@H](CCC(N)=O)C(=O)N[C@@H](CCCNC(=N)N)C(=O)N[C@@H](Cc1ccc(O)cc1)C(N)=O)[C@@H](C)O)C(C)C
B3: Compound 191 (peptide)
peptide: Isovaleryl-APEK([Ahx-γGlu-C18 diacid])PEEDATPEEIQRYYESLRHYYNWLTRQRY-NH2
SMILES: CC[C@H](C)[C@H](NC(=O)[C@H](CCC(=O)O)NC(=O)[C@H](CCC(=O)O)NC(=O)[C@@H]1CCCN1C(=O)[C@@H](NC(=O)[C@H](C)NC(=O)[C@H](CC(=O)O)NC(=O)[C@H](CCC(=O)O)NC(=O)[C@H](CCC(=O)O)NC(=O)[C@@H]1CCCN1C(=O)[C@H](CCCCNC(=O)CCCCCNC(=O)CC[C@H](NC(=O)CCCCCCCCCCCCCCCCC(=O)O)C(=O)O)NC(=O)[C@H](CCC(=O)O)NC(=O)[C@@H]1CCCN1C(=O)[C@H](C)NC(=O)CC(C)C)[C@@H](C)O)C(=O)N[C@@H](CCC(N)=O)C(=O)N[C@@H](CCCNC(=N)N)C(=O)N[C@@H](Cc1ccc(O)cc1)C(=O)N[C@@H](Cc1ccc(O)cc1)C(=O)N[C@@H](CCC(=O)O)C(=O)N[C@@H](CO)C(=O)N[C@@H](CC(C)C)C(=O)N[C@@H](CCCNC(=N)N)C(=O)N[C@@H](Cc1c[nH]cn1)C(=O)N[C@@H](Cc1ccc(O)cc1)C(=O)N[C@@H](Cc1ccc(O)cc1)C(=O)N[C@@H](CC(N)=O)C(=O)N[C@@H](Cc1c[nH]c2ccccc12)C(=O)N[C@@H](CC(C)C)C(=O)N[C@H](C(=O)N[C@@H](CCCNC(=N)N)C(=O)N[C@@H](CCC(N)=O)C(=O)N[C@@H](CCCNC(=N)N)C(=O)N[C@@H](Cc1ccc(O)cc1)C(N)=O)[C@@H](C)O
B4: Compound 188 (peptide)
peptide: Isovaleryl-APEK([Ahx-γGlu-C18 diacid])PEEDATPEELQRYYVSLRHYYNWLQRQRY-NH2
SMILES: CC(C)CC(=O)N[C@@H](C)C(=O)N1CCC[C@H]1C(=O)N[C@@H](CCC(=O)O)C(=O)N[C@@H](CCCCNC(=O)CCCCCNC(=O)CC[C@H](NC(=O)CCCCCCCCCCCCCCCCC(=O)O)C(=O)O)C(=O)N1CCC[C@H]1C(=O)N[C@@H](CCC(=O)O)C(=O)N[C@@H](CCC(=O)O)C(=O)N[C@@H](CC(=O)O)C(=O)N[C@@H](C)C(=O)N[C@H](C(=O)N1CCC[C@H]1C(=O)N[C@@H](CCC(=O)O)C(=O)N[C@@H](CCC(=O)O)C(=O)N[C@@H](CC(C)C)C(=O)N[C@@H](CCC(N)=O)C(=O)N[C@@H](CCCNC(=N)N)C(=O)N[C@@H](Cc1ccc(O)cc1)C(=O)N[C@@H](Cc1ccc(O)cc1)C(=O)N[C@H](C(=O)N[C@@H](CO)C(=O)N[C@@H](CC(C)C)C(=O)N[C@@H](CCCNC(=N)N)C(=O)N[C@@H](Cc1c[nH]cn1)C(=O)N[C@@H](Cc1ccc(O)cc1)C(=O)N[C@@H](Cc1ccc(O)cc1)C(=O)N[C@@H](CC(N)=O)C(=O)N[C@@H](Cc1c[nH]c2ccccc12)C(=O)N[C@@H](CC(C)C)C(=O)N[C@@H](CCC(N)=O)C(=O)N[C@@H](CCCNC(=N)N)C(=O)N[C@@H](CCC(N)=O)C(=O)N[C@@H](CCCNC(=N)N)C(=O)N[C@@H](Cc1ccc(O)cc1)C(N)=O)C(C)C)[C@@H](C)O
B5: Compound 187 (peptide)
peptide: Isovaleryl-APEK([Ahx-γGlu-C18 diacid])PEEDATPEEPQRYYVSLRHYYNWLTRQRY-NH2
SMILES: CC(C)CC(=O)N[C@@H](C)C(=O)N1CCC[C@H]1C(=O)N[C@@H](CCC(=O)O)C(=O)N[C@@H](CCCCNC(=O)CCCCCNC(=O)CC[C@H](NC(=O)CCCCCCCCCCCCCCCCC(=O)O)C(=O)O)C(=O)N1CCC[C@H]1C(=O)N[C@@H](CCC(=O)O)C(=O)N[C@@H](CCC(=O)O)C(=O)N[C@@H](CC(=O)O)C(=O)N[C@@H](C)C(=O)N[C@H](C(=O)N1CCC[C@H]1C(=O)N[C@@H](CCC(=O)O)C(=O)N[C@@H](CCC(=O)O)C(=O)N1CCC[C@H]1C(=O)N[C@@H](CCC(N)=O)C(=O)N[C@@H](CCCNC(=N)N)C(=O)N[C@@H](Cc1ccc(O)cc1)C(=O)N[C@@H](Cc1ccc(O)cc1)C(=O)N[C@H](C(=O)N[C@@H](CO)C(=O)N[C@@H](CC(C)C)C(=O)N[C@@H](CCCNC(=N)N)C(=O)N[C@@H](Cc1c[nH]cn1)C(=O)N[C@@H](Cc1ccc(O)cc1)C(=O)N[C@@H](Cc1ccc(O)cc1)C(=O)N[C@@H](CC(N)=O)C(=O)N[C@@H](Cc1c[nH]c2ccccc12)C(=O)N[C@@H](CC(C)C)C(=O)N[C@H](C(=O)N[C@@H](CCCNC(=N)N)C(=O)N[C@@H](CCC(N)=O)C(=O)N[C@@H](CCCNC(=N)N)C(=O)N[C@@H](Cc1ccc(O)cc1)C(N)=O)[C@@H](C)O)C(C)C)[C@@H](C)O
B6: Compound 190 (peptide)
peptide: Isovaleryl-APAK([Ahx-γGlu-C18 diacid])PEEDATPEELQRYYISLRHYYNWLTRQRY-NH2
SMILES: CC[C@H](C)[C@H](NC(=O)[C@H](Cc1ccc(O)cc1)NC(=O)[C@H](Cc1ccc(O)cc1)NC(=O)[C@H](CCCNC(=N)N)NC(=O)[C@H](CCC(N)=O)NC(=O)[C@H](CC(C)C)NC(=O)[C@H](CCC(=O)O)NC(=O)[C@H](CCC(=O)O)NC(=O)[C@@H]1CCCN1C(=O)[C@@H](NC(=O)[C@H](C)NC(=O)[C@H](CC(=O)O)NC(=O)[C@H](CCC(=O)O)NC(=O)[C@H](CCC(=O)O)NC(=O)[C@@H]1CCCN1C(=O)[C@H](CCCCNC(=O)CCCCCNC(=O)CC[C@H](NC(=O)CCCCCCCCCCCCCCCCC(=O)O)C(=O)O)NC(=O)[C@H](C)NC(=O)[C@@H]1CCCN1C(=O)[C@H](C)NC(=O)CC(C)C)[C@@H](C)O)C(=O)N[C@@H](CO)C(=O)N[C@@H](CC(C)C)C(=O)N[C@@H](CCCNC(=N)N)C(=O)N[C@@H](Cc1c[nH]cn1)C(=O)N[C@@H](Cc1ccc(O)cc1)C(=O)N[C@@H](Cc1ccc(O)cc1)C(=O)N[C@@H](CC(N)=O)C(=O)N[C@@H](Cc1c[nH]c2ccccc12)C(=O)N[C@@H](CC(C)C)C(=O)N[C@H](C(=O)N[C@@H](CCCNC(=N)N)C(=O)N[C@@H](CCC(N)=O)C(=O)N[C@@H](CCCNC(=N)N)C(=O)N[C@@H](Cc1ccc(O)cc1)C(N)=O)[C@@H](C)O

biological target: T1, human NPY2 receptor; assay: RLB: displacement of 125I-PYY(1-36) from hNPY2R membranes

| Ki [nM] | Binder |
| --- | --- |
| 2.06 | B1 |
| 0.74 | B2 |
| 8.32 | B3 |
| 5.46 | B4 |
| 15.3 | B5 |
| 1.95 | B6 |
